According to article doi:10.1101/2024.07.05.602318 (bioRxiv, 2024):
Residue numbers refer to the chain shown, from its start. In names and notes the source's numbering stands.

B1: POLDIP2 H225A, residues 52-368 (natural protein, human, UniProt Q9Y2S7 52-368, looked up)
chain: SSRNRPEGKVLETVGVFEVPKQNGKYETGQLFLHSIFGYRGVVLFPWQARLYDRDVASAAPEKAENPAGHGSKEVKGKTHTYYQVLIDARDCPHISQRSQTEAVTFLANHDDSRALYAIPGLDYVSHEDILPYTSTDQVPIQHELFERFLLYDQTKAPPFVARETLRAWQEKNAPWLELSDVHRETTENIRVTVIPFYMGMREAQNSHVYWWRYCIRLENLDSDVVQLRERHWRIFSLSGTLETVRGRGVVGREPVLSKEQPAFQYSSHVSLQASSGHMWGTFRFERPDGSHFDVRIPPFSLESNKDEKTPPSGLHW
B2: POLDIP2 (DNA polymerase delta interacting protein 2), residues 52-368 (natural protein, human, UniProt Q9Y2S7 52-368, looked up)
chain: B1 chain with A174H

Biological target: CLPX-3xFLAG (human, UniProt O76031 65-633)
Sequence (O76031 65-633): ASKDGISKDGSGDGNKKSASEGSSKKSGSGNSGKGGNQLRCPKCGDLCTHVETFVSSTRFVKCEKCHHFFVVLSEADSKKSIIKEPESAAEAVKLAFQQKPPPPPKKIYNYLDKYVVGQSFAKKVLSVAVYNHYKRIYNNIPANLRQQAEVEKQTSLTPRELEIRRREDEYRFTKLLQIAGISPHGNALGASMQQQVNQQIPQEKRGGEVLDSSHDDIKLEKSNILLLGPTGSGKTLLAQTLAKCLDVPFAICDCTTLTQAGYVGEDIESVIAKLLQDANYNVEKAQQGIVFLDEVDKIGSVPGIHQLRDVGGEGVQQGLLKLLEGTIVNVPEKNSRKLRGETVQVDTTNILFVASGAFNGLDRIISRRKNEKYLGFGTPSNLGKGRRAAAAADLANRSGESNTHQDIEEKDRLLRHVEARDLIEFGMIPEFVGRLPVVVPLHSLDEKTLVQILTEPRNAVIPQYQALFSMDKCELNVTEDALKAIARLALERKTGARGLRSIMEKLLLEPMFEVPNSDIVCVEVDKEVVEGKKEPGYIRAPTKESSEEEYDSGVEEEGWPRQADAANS
Assay: co-IP

Binder | binding result
B1 | binds
B2 | binds
